# Results: the supplement of paper PMC9170038
# Test system: MS2 coat protein
# Assay: apparent KD of MS2 coat protein; designed switch direction (-1 OFF switch, 1 ON switch): -1; higher = weaker reporter binding
# Outline: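 RNA switches sharing common flanks were transcribed by stalled E. coli RNA polymerase on Illumina chips. A doubling series of SNAP-549-labelled MS2 coat protein, from 0.7 or 1.5 nM to 3 µM, was applied in Tris-HCl pH 7.5 buffer with KCl, MgCl2, BSA, DTT, tRNA and Tween-20. Each step lasted 0.8–1.5 h at the bottom of the series and 10–20 min at the top. Normalised cluster fluorescence was curve-fitted, giving apparent KD as the per-design median over clusters.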
# [1] = Eterna round: R95, input ligand: microRNA oligo, concentration not stated
# [2] = input ligand: microRNA oligo, concentration not stated
# [3] = Eterna round: R95, input ligand: FMN 200 uM
# [4] = Eterna round: R95, input ligand: none
sequence,measurement,setting,value
"CACGUGAUUGGGCUCAUUAACAUGAGGAUCACCCAUGUGUGUGUUUUAGGAUGCCCACAAGCUUUUUCGCCGUCUAG [Eternabot (L1) Solution 3] (Eterna round: R97, puzzle: Sensor, turn-off variant 1)",apparent KD of MS2 coat protein,input ligand: FMN 200 uM,51 nM
same,apparent KD of MS2 coat protein,input ligand: none,64.8 nM
"CAGCCCUGAGGAUAUCCAUCCUCGUACAUGAGGAUCACCCAUGUCUCCCUCUGGGCUUUCGGAGAAGGCAGGUAUC [Megrez-6.1] (Eterna round: R97, puzzle: Exclusion 5)",apparent KD of MS2 coat protein,input ligand: FMN 200 uM,743 nM
same,apparent KD of MS2 coat protein,input ligand: none,976 nM
"CAGCCCUGAGGAUAUCCCUACUUGCACAUGAGGAUCACCCAUGUCCUCCUCCGGGCUUCGGGAGAAGGCAGGUCUC [Megrez-7.5] (Eterna round: R97, puzzle: Exclusion 5)",apparent KD of MS2 coat protein,input ligand: FMN 200 uM,23.8 nM
same,apparent KD of MS2 coat protein,input ligand: none,17 nM
"CAGCGAACAGGAUAUACAUGAGGAUCACCCAUGUGUUCCAGCUAGGAAACUAGCAAAUGUAGAAGGGUUCGCUG [Mat - Exclusion 3 - JL Mod - D2] (Eterna round: R97, puzzle: Exclusion 3)",apparent KD of MS2 coat protein,input ligand: FMN 200 uM,584 nM
same,apparent KD of MS2 coat protein,input ligand: none,324 nM
"CAGCUGAAAGUGAGGAUAUCUAGAGCCUCGGCUCUAGAGAAGGCACAUGAGGAUCACCCAUGUCUCAACAGCUG [BmEx4/1-A2] (Eterna round: R97, puzzle: Brourd's mod of Exclusion 4)",apparent KD of MS2 coat protein,input ligand: FMN 200 uM,67.1 nM
same,apparent KD of MS2 coat protein,input ligand: none,19.6 nM
CAGUACUGAGGAUAUACAUGAGGAUCACCCAUGUGCUCGAAGUAGGAUACUACUAUUAGUAGAAGGCAGUACUG [Fiskers Ex 3 828 mod 22] (puzzle: Exclusion 3),apparent KD of MS2 coat protein,[1],15.9 nM
"CAGUACUGAGGAUAUACAUGAGGAUCACCCAUGUGCUUCAGCUAGGAUACUAGCAUUAGUAGAAGGCAGUACUG [Fiskers Ex 3 828 mod 13] (Eterna round: R96, puzzle: Exclusion 3)",apparent KD of MS2 coat protein,input ligand: FMN 200 uM,81 nM
same,apparent KD of MS2 coat protein,[2],10.8 nM
same,apparent KD of MS2 coat protein,input ligand: none,13.9 nM
CAGUACUGAGGAUAUACAUGAGGAUCACCCAUGUGCUUCAGCUAGGAUACUAGCAUUAGUAGAAGGCAGUACUG [Fiskers Ex 3 828 mod 13] (puzzle: Exclusion 3),apparent KD of MS2 coat protein,[1],11.3 nM
CAGUACUGAGGAUAUACAUGAGGAUCACCCAUGUGCUUUAGCUAGGAUACUAGCACCAGUAGAAGGCAGUACUG [Fiskers Ex 3 828 mod 12] (puzzle: Exclusion 3),apparent KD of MS2 coat protein,[1],10.7 nM
"CAGUACUGAGGAUAUACAUGAGGAUCACCCAUGUGUCCUAGCUAGGAAACUAGCAUUAGUAGAAGGCAGUACUG [Fiskers Ex 3 828 mod 6] (Eterna round: R96, puzzle: Exclusion 3)",apparent KD of MS2 coat protein,input ligand: FMN 200 uM,225 nM
same,apparent KD of MS2 coat protein,[2],16.9 nM
same,apparent KD of MS2 coat protein,input ligand: none,19.5 nM
CAGUACUGAGGAUAUACAUGAGGAUCACCCAUGUGUCCUAGCUAGGAAACUAGCAUUAGUAGAAGGCAGUACUG [Fiskers Ex 3 828 mod 6] (puzzle: Exclusion 3),apparent KD of MS2 coat protein,[1],22.1 nM
"CAGUACUGAGGAUAUACAUGAGGAUCACCCAUGUGUCUUAUAUUAGGAAACUAGGUAUGUAGAAGGCAGUACUG [Omei Ex3 Mod of Eli 4.27 v4] (Eterna round: R97, puzzle: Exclusion 3)",apparent KD of MS2 coat protein,input ligand: FMN 200 uM,304 nM
same,apparent KD of MS2 coat protein,input ligand: none,62.1 nM
"CAGUACUGAGGAUAUACAUGAGGAUCACCCAUGUGUGUGAGAUUUGGAUGAAAGUUAUGUAGAAGGCGGUGCUG [JR_Ex3_Sub037] (Eterna round: R97, puzzle: Exclusion 3)",apparent KD of MS2 coat protein,input ligand: FMN 200 uM,68.4 nM
same,apparent KD of MS2 coat protein,input ligand: none,73.8 nM
"CAGUACUGAGGAUAUACAUGAGGAUCACCCAUGUGUGUGCGUUUUGUAUGAAUGUUAUGUAGAAGGCGGUGCUG [JR_Ex3_Sub035] (Eterna round: R97, puzzle: Exclusion 3)",apparent KD of MS2 coat protein,input ligand: FMN 200 uM,201 nM
same,apparent KD of MS2 coat protein,input ligand: none,39.1 nM
"CAGUACUGAGGAUAUACAUGAGGAUCACCCAUGUGUUCCAGCUAGGAAACUAGCACUUGUAGAAGGCAGUACUG [Ex3: 830] (Eterna round: R96, puzzle: Exclusion 3)",apparent KD of MS2 coat protein,input ligand: FMN 200 uM,458 nM
same,apparent KD of MS2 coat protein,[2],21.6 nM
same,apparent KD of MS2 coat protein,input ligand: none,26.7 nM
"CAGUACUGAGGAUAUACAUGAGGAUCACCCAUGUGUUCCAGCUAGGAAACUAGCAUAAGUAGAAGGCAGUACUG [salish99_ex3_r3_091x] (Eterna round: R96, puzzle: Exclusion 3)",apparent KD of MS2 coat protein,input ligand: FMN 200 uM,461 nM
same,apparent KD of MS2 coat protein,[2],18.4 nM
same,apparent KD of MS2 coat protein,input ligand: none,23.6 nM
CAGUACUGAGGAUAUACAUGAGGAUCACCCAUGUGUUCCAGCUAGGAAACUAGCAUAAGUAGAAGGCAGUACUG [salish99_ex3_r3_091x] (puzzle: Exclusion 3),apparent KD of MS2 coat protein,[1],21.8 nM
CAGUACUGAGGAUAUACAUGAGGAUCACCCAUGUGUUCCAGCUAGGAAACUGGCAAAAGUAGAAGGCAGUACUG [salish99_ex3_r3_070] (puzzle: Exclusion 3),apparent KD of MS2 coat protein,[1],21.6 nM
"CAGUACUGAGGAUAUACAUGAGGAUCACCCAUGUUCUUCGGCUAGGAAACUAGCAAAGGUAGAAGGCAGUACUG [Salish 065 m16] (Eterna round: R97, puzzle: Exclusion 3)",apparent KD of MS2 coat protein,input ligand: FMN 200 uM,285 nM
same,apparent KD of MS2 coat protein,input ligand: none,15.7 nM
"CAGUACUGCAAGCUAUGGGACAUGAGGAUCACCCAUGUUCGUCUUAUUGAUCUAGGUACGCUGACGUACCUAGAUCU [JL-sv1-2.20 Brourd mod] (puzzle: Sensor v3, turn-off variant 1)",apparent KD of MS2 coat protein,[3],16.3 nM
same,apparent KD of MS2 coat protein,[1],20.5 nM
same,apparent KD of MS2 coat protein,[4],15.9 nM
"CAGUACUGCAGGCUUCGGGACAUGAGGAUCACCCAUGUUCGUCUUAUUGAUCUAGGUACGCUGACGUACCUAGAUCU [JL-sv1-2.16 Brourd mod] (puzzle: Sensor v3, turn-off variant 1)",apparent KD of MS2 coat protein,[3],16.7 nM
same,apparent KD of MS2 coat protein,[1],18.6 nM
same,apparent KD of MS2 coat protein,[4],15.4 nM
"CAUAAUGCAGGAUAUACCAAAUGGCAGUGAAUGCGUGCGCAACAUGAGGAUCACCCAUGUAGAAGGGCACAAGA [Eternabot (Original) Solution 27] (Eterna round: R97, puzzle: Exclusion 2)",apparent KD of MS2 coat protein,input ligand: FMN 200 uM,18 nM
same,apparent KD of MS2 coat protein,input ligand: none,13.5 nM
"CAUAGUUACUCAGGAUAUAGUACAUGAGGAUCACCCAUGUAAUAAAUGAGAAUUUCGAAUGUAUACUAGAAGGGAGAAAUCUAC [Ostracism 55 - Jieux - Exclusion NG 2] (Eterna round: R96, puzzle: Exclusion NG 2)",apparent KD of MS2 coat protein,input ligand: FMN 200 uM,44.5 nM
same,apparent KD of MS2 coat protein,[2],35.8 nM
same,apparent KD of MS2 coat protein,input ligand: none,46.1 nM
"CAUAUACAUGAGGAUCACCCAUGUGAGGAUAUGCUUUAUUAUUAUUAUUAUUAUUAUUGCAGAAGGUACAUUAC [LRO-Excl01-12] (Eterna round: R97, puzzle: Exclusion 1)",apparent KD of MS2 coat protein,input ligand: FMN 200 uM,23.9 nM
same,apparent KD of MS2 coat protein,input ligand: none,24.6 nM
"CAUGAUCUUCGGAUCAUGUACAUGAGGAUCACCCAUGUGACGAGUUACAUGUUUUACAAGCUUUUUGCUCGUCUUAU [Sensor v3 - Turn-off variant 1 - 14] (puzzle: Sensor v3, turn-off variant 1)",apparent KD of MS2 coat protein,[3],40.3 nM
same,apparent KD of MS2 coat protein,[1],99.4 nM
same,apparent KD of MS2 coat protein,[4],47.4 nM
"CAUGAUUGGCGAGGAUAUUGACCUAGUUCGCGACGAGAAGGCGCCUGUCACAUGAGGAUCACCCAUGUGAAUCUGGUGAAAGAG [Ex NG1 #91] (Eterna round: R96, puzzle: Exclusion NG 1)",apparent KD of MS2 coat protein,input ligand: FMN 200 uM,14.5 nM
same,apparent KD of MS2 coat protein,[2],11.4 nM
same,apparent KD of MS2 coat protein,input ligand: none,20.3 nM
"CAUGAUUGGCGAGGAUAUUGAUCUAGUUGGCGACGAGAAGGCGCCUGUCACAUGAGGAUCACCCAUGUGAAUCUGGUGAAAGAG [Ex NG1 #89] (Eterna round: R96, puzzle: Exclusion NG 1)",apparent KD of MS2 coat protein,input ligand: FMN 200 uM,24.9 nM
same,apparent KD of MS2 coat protein,[2],18.5 nM
same,apparent KD of MS2 coat protein,input ligand: none,25.9 nM
CAUGGAACAUAGGAUAUCUCGCGGCUAGACUGCAGAGAAGGAUGUACAUGAGGAUCACCCAUGUAUGAUCCAGU [Leisceza] (puzzle: Exclusion 6),apparent KD of MS2 coat protein,[3],29.3 nM
same,apparent KD of MS2 coat protein,[1],15.8 nM
same,apparent KD of MS2 coat protein,[4],17.3 nM
CAUGUGUAAGGAUAUGACAAUGGUAUCUUCGGAUACCAUUGUCAGAAGGUACAUGAGGAUCACCCAUGUACAUC [Ex4-3: 17] (puzzle: Exclusion 4),apparent KD of MS2 coat protein,[1],13.1 nM
"CAUGUGUGAGGAUAUCCUAGACUAAUGGAGACGCUACCGUGGGAGAAGGUACAUGAGGAUCACCCAUGUGGACC [Eternabot (L1) Solution 88] (Eterna round: R97, puzzle: Exclusion 4)",apparent KD of MS2 coat protein,input ligand: FMN 200 uM,32.7 nM
same,apparent KD of MS2 coat protein,input ligand: none,32.2 nM
"CAUUAGCAAGCGAGAUCCCACAUGAGGAUCACCCAUGUGCUCGUCUUAUAAGGUACUGUGACGAGAGUCACGGUACC [Mat - Sensor, turn-off var - Eli Mod - D42] (Eterna round: R97, puzzle: Sensor, turn-off variant 1)",apparent KD of MS2 coat protein,input ligand: FMN 200 uM,15.2 nM
same,apparent KD of MS2 coat protein,input ligand: none,16.1 nM
"CAUUAUGUUGAGGAUAUGCACCAGCUCACUGACGCAGAAGGCGACACAUGAGGAUCACCCAUGUCAGUUCGCGU [salish99_ex6_r004_429] (Eterna round: R97, puzzle: Exclusion 6)",apparent KD of MS2 coat protein,input ligand: FMN 200 uM,23.5 nM
same,apparent KD of MS2 coat protein,input ligand: none,17 nM
"CAUUAUGUUGAGGAUAUGCGCCGGCUCGCUGGCGCAGAAGGCGACACAUGAGGAUCACCCAUGUCAGUUCGCGA [salish99_ex6_r004_418] (Eterna round: R97, puzzle: Exclusion 6)",apparent KD of MS2 coat protein,input ligand: FMN 200 uM,13.3 nM
same,apparent KD of MS2 coat protein,input ligand: none,8.87 nM
"CAUUAUUAUCGAGGAUAUCCUAUUGAAAUUCUGGGAGAAGGCGGACUCAACAUGAGGAUCACCCAUGUAAGACGGGUGCUAGGG [Ex NG1 #25] (Eterna round: R96, puzzle: Exclusion NG 1)",apparent KD of MS2 coat protein,input ligand: FMN 200 uM,202 nM
same,apparent KD of MS2 coat protein,[2],93.1 nM
same,apparent KD of MS2 coat protein,input ligand: none,157 nM
CAUUGACAUGAGGAUCACCCAUGUCAGGAUAUGCUUCAUGACACGAAAGUGUCAUGAAGCAGAAGGGACAUGCC [SS1 Omei 1] (puzzle: Exclusion 1),apparent KD of MS2 coat protein,[1],19.5 nM
